According to patent publication US20200055939A1 (Genentech, published 2020):

T1: MICA*008 on MEL-JUSO cells (human, UniProt Q29983 24-317)
T1 chain: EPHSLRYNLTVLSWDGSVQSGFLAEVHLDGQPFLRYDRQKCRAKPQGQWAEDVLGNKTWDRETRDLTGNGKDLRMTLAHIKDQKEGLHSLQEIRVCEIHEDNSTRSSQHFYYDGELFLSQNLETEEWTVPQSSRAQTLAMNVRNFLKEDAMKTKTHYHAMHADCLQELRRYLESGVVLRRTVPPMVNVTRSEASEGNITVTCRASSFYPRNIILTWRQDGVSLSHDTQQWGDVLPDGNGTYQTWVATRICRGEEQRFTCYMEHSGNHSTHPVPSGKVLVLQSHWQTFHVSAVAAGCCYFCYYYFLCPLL

T2: huMICA*004 alpha 3-his (human)
T2 construct: whole construct entry: GS, alpha 3 domain, GNS, His8; also called MICA004.His; MICA*004 alpha3 construct
T2 chain: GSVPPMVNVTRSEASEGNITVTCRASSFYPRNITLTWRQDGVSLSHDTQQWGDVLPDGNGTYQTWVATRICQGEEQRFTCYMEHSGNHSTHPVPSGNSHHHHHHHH

T3: huMICB*005 alpha 3-his (human)
T3 construct: whole construct entry: GS, alpha 3 domain, GNS, His8; also called MICB005.His; MICB*005 alpha3 construct
T3 chain: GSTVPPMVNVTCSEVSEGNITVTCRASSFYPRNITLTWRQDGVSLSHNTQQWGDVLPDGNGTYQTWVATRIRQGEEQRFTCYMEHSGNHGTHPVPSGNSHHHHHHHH

T4: huMICA*002 alpha 3-his (human)
T4 construct: whole construct entry: GS, alpha 3 domain, GNS, His8; also called MICA002.His; MICA*002 alpha3 construct
T4 chain: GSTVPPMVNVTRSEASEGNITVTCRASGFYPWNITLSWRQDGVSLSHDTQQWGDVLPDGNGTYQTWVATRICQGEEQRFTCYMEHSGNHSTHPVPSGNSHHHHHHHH

T5: huMICA*008 alpha 3-his (human)
T5 construct: whole construct entry: GS, alpha 3 domain (Thr204-Ser297), GNS, His8; also the construct of the FPOP experiment; also called MICA008.His; MICA*008 alpha3 construct
T5 chain: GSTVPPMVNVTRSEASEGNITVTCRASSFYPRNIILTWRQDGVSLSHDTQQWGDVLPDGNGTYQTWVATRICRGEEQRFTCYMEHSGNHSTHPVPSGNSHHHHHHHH


What was measured:
[1] = target: MICA*004 on HCC1534 cells (human, UniProt Q29983 24-383); test: cell-based or functional assay
[2] = target: T1, MICA*008 on MEL-JUSO cells; test: cell-based or functional assay
[3] = target: MICB*005 on HCC1534 cells (human); test: cell-based or functional assay
huMICA*004 alpha 3-his = target: T2, huMICA*004 alpha 3-his; test: SPR, Biacore 8K, antibody on Protein A chip
huMICB*005 alpha 3-his = target: T3, huMICB*005 alpha 3-his; test: SPR, Biacore 8K, antibody on Protein A chip
huMICA*002 alpha 3-his = target: T4, huMICA*002 alpha 3-his; test: SPR, Biacore 8K, antibody on Protein A chip
huMICA*008 alpha 3-his = target: T5, huMICA*008 alpha 3-his; test: SPR, Biacore 8K, antibody on Protein A chip
Throughout, for % Inhibition: test concentration or dose not given here.

Binder	% Inhibition [1]	% Inhibition [2]	% Inhibition [3]	Kd (huMICA*004 alpha 3-his)	Kd (huMICB*005 alpha 3-his)	Kd (huMICA*002 alpha 3-his)	Kd (huMICA*008 alpha 3-his)
6E1 (m IgG2a, CHO) (antibody, V domains shown) VH: QGQMQQSGAELVKPGASVKLSCKTSGFTFSDNYISWLKQKPGQSLEWIAWIYAGTGGSSYNQKFRDKAQLTVDTSSRTAYMQLSSLTTEDSAIYYCARHDYYGTSGAWFAYWGRGTLVTVSA VL: DVLMTQTPLSLPVSLGDQASISCRSSQHIVHSNENTYLEWYLQKPGQSPKLLIYKVSNRFSGVPDRFSGSGSGTDFTLKISRVEAEDLGVYYCFQGSHVPWTFGGGTKVEIK	40%	36%	47%				
1D5v1 (antibody, IgG1, V domains shown, humanized variant of 1D5; also called lD5v1) VH: EIQLVQSGAEVKKPGASVKVSCKASGYAFTSQNIYWVRQAPGQGLEWIGYIEPYNVVPMYNPKFKGRATLTVDKSTSTAYMELRSLRSDDTAVYYCARSGSSNFDYWGQGTLVTVSS VL: EIVLTQSPDFQSVTPKEKVTITCSASSSISSHYLHWYQQKPDQSPKLLIYRTSNLASGVPSRFSGSGSGTDYTLTINSLEAEDAATYYCQQGSSLPLTFGQGTKVEIK	54%	52%	41%	1.17 nM	1.96 nM	1.4 nM	0.96 nM
1D5v4 (antibody, IgG1, V domains shown, humanized variant of 1D5) VH: EVQLVQSGAEVKKPGASVKVSCKASGYAFTSQNIYWVRQAPGQGLEWIGYIEPYNVVPMYNPKFKGRVTITRDTSTSTAYLELSSLRSEDTAVYYCARSGSSNFDYWGQGTLVTVSS VL: EIVLTQSPDFQSVTPKEKVTITCSASSSISSHYLHWYQQKPDQSPKLLIYRTSNLASGVPSRFSGSGSGTDYTLTINSLEAEDAATYYCQQGSSLPLTFGQGTKVEIK	46%	43%	34%	6.2 nM	16.2 nM	6.63 nM	7.45 nM
15F11 (m IgG2a, CHO) (antibody, V domains shown) VH: EIQLQQSGPELVKPGASVRVSCKPSGYAFTSNNIYWVKQSRRKSLEWIGYIDPYIGRIIYNQQFKDKATLTVDKSSSTAYMHLNSLTSEDSAVYYCSRSGERSNFDYWGQGTTLTVSS VL: EIVLTQSPTAMAASPGEKITITCSASSSISSNYLHWYQQKPGFSPKLLIYRTSNLASGVPARFSGSGSGTSYSLTIGPMEAEDVATYYCQQGGSLPLTFGAGTKVEIK	60%	69%	57%				
1D5 (m IgG2a, CHO) (antibody, V domains shown) VH: EIQLQQSGPELVKPGASVKVSCKASGYAFTSQNIYWVKQSHGKSLEWIGYIEPYNVVPMYNPKFKGKATLTVDKSSSSAYIHLNSLTSEDSAIYYCARSGSSNFDYWGQGTTLTVSS VL: EIILTQSPTTMAASPGEKITITCSASSSISSHYLHWYQQKSGFSPKLLIYRTSNLASGVPARFSGSGSGTSYSLTIGTMEAEDVATYYCQQGSSLPLTFGAGTKVEIK	59%	74%	76%				
13A9 (antibody, V domains shown, mouse variable domains) VH: QVQLQQSGAELVRPGTSVKVSCKASGYAFTNYLIEWVKQRPGQGLEWIGAINPGSGATNYNEKFKDKARLTADKSSNTAYLQFSSLTSDDSAVYFCARFLGNYFDNWGQGATLTVSS VL: DIQMTQSPASLSASVGETVTITCRASGNIHSYLAWYQQKQGKSPQLLVYYAETLADGVPSRFSGRGSGTQYSLKINSLQPEDFGSYFCQQFWTTPYTFGGGTKVEIK	21%	-7%	61%	6.77 nM	2.35 nM	4.82 nM	2.35 nM
13A9 (m IgG2a, CHO) (antibody, V domains shown) VH: QVQLQQSGAELVRPGTSVKVSCKASGYAFTNYLIEWVKQRPGQGLEWIGAINPGSGATNYNEKFKDKARLTADKSSNTAYLQFSSLTSDDSAVYFCARFLGNYFDNWGQGATLTVSS VL: DIQMTQSPASLSASVGETVTITCRASGNIHSYLAWYQQKQGKSPQLLVYYAETLADGVPSRFSGRGSGTQYSLKINSLQPEDFGSYFCQQFWTTPYTFGGGTKVEIK	34%	29%	60%				

More lines, now with the values ahead:

% Inhibition [1]	% Inhibition [2]	% Inhibition [3]	Kd (huMICA*004 alpha 3-his)	Kd (huMICB*005 alpha 3-his)	Kd (huMICA*002 alpha 3-his)	Kd (huMICA*008 alpha 3-his)	Binder
47%	51%	37%	2.91 nM	6.15 nM	3.69 nM	2.61 nM	1D5v6 (antibody, IgG1, V domains shown, humanized variant of 1D5) VH: EVQLVQSGAEVKKPGASVKVSCKASGYAFTSQNIYWVRQAPGQGLEWMGYIEPYNVVPMYNPKFKGRVTMTTDTSTSTAYMELRSLRSDDTAVYYCARSGSSNFDYWGQGTLVTVSS VL: EIVLTQSPDFQSVTPKEKVTITCSASSSISSHYLHWYQQKPDQSPKLLIKRTSNLASGVPSRFSGSGSGTDFTLTINSLEAEDAATYYCQQGSSLPLTFGQGTKVEIK
56%	50%	38%	0.96 nM	1.78 nM	1.21 nM	0.85 nM	1D5v3 (antibody, IgG1, V domains shown, humanized variant of 1D5) VH: EIQLVQSGAEVKKPGASVKVSCKASGYAFTSQNIYWVRQAPGQGLEWIGYIEPYNVVPMYNPKFKGRATLTVDKSTSTAYLELSSLRSEDTAVYYCARSGSSNFDYWGQGTLVTVSS VL: EIVLTQSPDFQSVTPKEKVTITCSASSSISSHYLHWYQQKPDQSPKLLIYRTSNLASGVPSRFSGSGSGTDYTLTINSLEAEDAATYYCQQGSSLPLTFGQGTKVEIK
39%	36%	32%	2.13 nM	3.99 nM	2.59 nM	1.64 nM	1D5v5 (antibody, IgG1, V domains shown, humanized variant of 1D5) VH: EIQLVQSGAEVKKPGASVKVSCKASGYAFTSQNIYWVRQAPGQGLEWIGYIEPYNVVPMYNPKFKGRATLTVDKSTSTAYMELRSLRSDDTAVYYCARSGSSNFDYWGQGTLVTVSS VL: EIVLTQSPDFQSVTPKEKVTITCSASSSISSHYLHWYQQKPDQSPKLLIKRTSNLASGVPSRFSGSGSGTDFTLTINSLEAEDAATYYCQQGSSLPLTFGQGTKVEIK
38%	33%	26%	1.34 nM	2.69 nM	1.69 nM	0.89 nM	1D5v2 (antibody, IgG1, V domains shown, humanized variant of 1D5) VH: EVQLVQSGAEVKKPGASVKVSCKASGYAFTSQNIYWVRQAPGQGLEWMGYIEPYNVVPMYNPKFKGRVTMTTDTSTSTAYMELRSLRSDDTAVYYCARSGSSNFDYWGQGTLVTVSS VL: EIVLTQSPDFQSVTPKEKVTITCSASSSISSHYLHWYQQKPDQSPKLLIYRTSNLASGVPSRFSGSGSGTDYTLTINSLEAEDAATYYCQQGSSLPLTFGQGTKVEIK
48%	51%	42%	1.67 nM	3.31 nM	2.21 nM	1.7 nM	1D5v7 (antibody, IgG1, V domains shown, humanized variant of 1D5) VH: EIQLVQSGAEVKKPGASVKVSCKASGYAFTSQNIYWVRQAPGQGLEWIGYIEPYNVVPMYNPKFKGRATLTVDKSTSTAYLELSSLRSEDTAVYYCARSGSSNFDYWGQGTLVTVSS VL: EIVLTQSPDFQSVTPKEKVTITCSASSSISSHYLHWYQQKPDQSPKLLIKRTSNLASGVPSRFSGSGSGTDFTLTINSLEAEDAATYYCQQGSSLPLTFGQGTKVEIK
			1.23 nM	2.14 nM	1.62 nM	1.16 nM	1D5v14 (antibody, IgG1, V domains shown, humanized variant of 1D5; also called 1D5v14 second data point) VH: EVQLVQSGAEVKKPGASVKVSCKASGYAFTSQNIYWVRQAPGQGLEWMGYIEPYNVVPMYNPKFKGRVTMTTDTSTSTAYMELRSLRSDDTAVYYCARSGSSNFDYWGQGTLVTVSS VL: DIQMTQSPSSLSASVGDRVTITCSASSSISSHYLHWYQQKPGKAPKLLIYRTSNLASGVPSRFSGSGSGTDFTLTISSLQPEDFATYYCQQGSSLPLTFGQGTKVEIK
54%	50%	43%	1.31 nM	2.28 nM	2.21 nM	0.79 nM	15F11 (antibody, V domains shown, mouse variable domains) VH: EIQLQQSGPELVKPGASVRVSCKPSGYAFTSNNIYWVKQSRRKSLEWIGYIDPYIGRIIYNQQFKDKATLTVDKSSSTAYMHLNSLTSEDSAVYYCSRSGERSNFDYWGQGTTLTVSS VL: EIVLTQSPTAMAASPGEKITITCSASSSISSNYLHWYQQKPGFSPKLLIYRTSNLASGVPARFSGSGSGTSYSLTIGPMEAEDVATYYCQQGGSLPLTFGAGTKVEIK
